Experimental data reported in article PMC4254770.

Biological target: maltose binding protein (MBP)-tagged ubiquitin
Test: ELISA

Substance	binding in ELISA relative to S4WIYLD (set to 1) (relative to S4WIYLD = 1)	reduction of binding relative to wild-type S4WIYLD [%]
GST-tagged SUVR1 WIYLD domain (domain or fragment)	0.65	
GST-tagged SUVR2 WIYLD domain (domain or fragment)	1.23	
GST-tagged SUVR4 WIYLD domain A32E (domain or fragment)		37
